Numbering of substitutions follows the chain as printed.
T1: human FcγRIIaH extracellular domain with C-terminal His-tag (human, UniProt P12318 34-217)
T1 construct: also called human FcgRIIaH; FcγRIIa (type H)
T1 sequence: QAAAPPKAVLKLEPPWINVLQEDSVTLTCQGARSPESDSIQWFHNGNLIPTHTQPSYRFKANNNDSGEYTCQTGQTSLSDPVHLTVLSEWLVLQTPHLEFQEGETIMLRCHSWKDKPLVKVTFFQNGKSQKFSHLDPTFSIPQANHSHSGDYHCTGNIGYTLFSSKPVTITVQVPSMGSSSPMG

T2: human FcγRIIaH extracellular domain, His-tagged (human, UniProt P12318 34-217)
T2 construct: also called human FcγRIIa (type H); FcgRIIaH; not shown: C-terminal His-tag
T2 sequence: T1 sequence

T3: cynomolgus monkey FcγRIIa2 extracellular domain, His-tagged (cynomolgus monkey)
T3 construct: also called cyno FcγRIIa2; cynoFcgRIIa2; not shown: C-terminal His-tag
T3 chain: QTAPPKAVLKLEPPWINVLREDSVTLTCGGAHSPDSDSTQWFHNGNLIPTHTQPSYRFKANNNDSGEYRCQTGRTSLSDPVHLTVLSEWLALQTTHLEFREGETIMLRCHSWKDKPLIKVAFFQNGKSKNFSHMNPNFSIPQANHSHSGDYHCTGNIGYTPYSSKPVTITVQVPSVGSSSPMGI

T4: cynomolgus monkey FcγRIIIaS extracellular domain, His-tagged (cynomolgus monkey, UniProt Q8SPW2 21-206 at identity 1.00))
T4 construct: also called cyno FcγRIIIaS; cynoFcγRIIIaS; not shown: C-terminal His-tag
T4 chain: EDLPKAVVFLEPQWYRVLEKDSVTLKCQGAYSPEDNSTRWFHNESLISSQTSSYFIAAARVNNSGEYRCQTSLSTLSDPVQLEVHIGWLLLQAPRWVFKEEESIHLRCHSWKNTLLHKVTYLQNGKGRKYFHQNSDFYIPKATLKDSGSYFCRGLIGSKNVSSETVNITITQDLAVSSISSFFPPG

T5: cynomolgus monkey FcγRIIb extracellular domain, His-tagged (cynomolgus monkey)
T5 construct: also called cyno FcγRIIb; cynoFcγRIIb; not shown: C-terminal His-tag
T5 chain: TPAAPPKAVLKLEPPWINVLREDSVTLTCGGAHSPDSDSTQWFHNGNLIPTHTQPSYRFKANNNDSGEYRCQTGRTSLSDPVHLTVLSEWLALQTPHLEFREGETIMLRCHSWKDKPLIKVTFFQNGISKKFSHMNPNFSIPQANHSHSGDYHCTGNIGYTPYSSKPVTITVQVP

T6: human FcγRIIaR extracellular domain, His-tagged (human, UniProt P12318 34-217)
T6 construct: also called human FcγRIIa (type R); FcgRIIaR; not shown: C-terminal His-tag
T6 chain: T1 sequence with H134R

T7: human FcγRIIb extracellular domain, His-tagged (human, UniProt P31994 43-217)
T7 construct: also called FcgRIIb (human); not shown: C-terminal His-tag
T7 sequence: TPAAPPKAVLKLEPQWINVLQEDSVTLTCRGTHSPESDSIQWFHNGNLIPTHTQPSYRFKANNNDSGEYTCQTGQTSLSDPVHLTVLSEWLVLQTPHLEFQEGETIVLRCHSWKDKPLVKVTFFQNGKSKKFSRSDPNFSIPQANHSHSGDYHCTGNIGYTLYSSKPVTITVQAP

T8: cynomolgus monkey FcγRIIa3 extracellular domain, His-tagged (cynomolgus monkey)
T8 construct: also called cyno FcγRIIa3; cynoFcgRIIa3; not shown: C-terminal His-tag
T8 chain: T3 chain with K127I, N130K, H133P, Q142R

B1: M103205H795-MY530/M103202L889-SK1 (antibody, human IgG1, kappa)
heavy: QVTLKESGPVLVKPTETLTLTCTVSGIDLSHDDISWVRQAPGKGLEWVGIISYAGSTYYASWAKGRLTISKDTSKNQVVLTMTNMDPVDTATYYCARGVPAYSHGGDLWGQGTLVTVSSASTKGPSVFPLAPSSKSTSGGTAALGCLVKDYFPEPVTVSWNSGALTSGVHTFPAVLQSSGLYSLSSVVTVPSSSLGTQTYICNVNHKPSNTKVDKKVEPKSCDKTHTCPPCPAPELLTGPSVFLFPPKPKDTLMISRTPEVTCVVVDVSDEDPEVKFNWYVDGVEVHNAKTKPREEQYNSTYRVVSVLTVLHQDWLNGKEYKCKVSNTALPKPIEKTISKAKGQPREPQVYTLPPSREEMTKNQVSLTCLVKGFYPSDIAVEWESNGQPENNYKTTPPVLDSDGSFFLYSKLTVDKSRWQQGNVFSCSVMHEALHNHYTQKSLSLSP
light: DIVMTQSPATLSLSPGERATLSCTSSQSVYHANWLSWFQQKPGQPPKLLIYWASTLAYGVPSRFSGSGSGTDFTLTISSLQPEDAATYYCAGGYGGGRYAFGQGTKVEIKRTVAAPSVFIFPPSDEQLKSGTASVVCLLNNFYPREAKVQWKVDNALQSGNSQESVTEQDSKDSTYSLSSTLTLSKADYEKHKVYACEVTHQGLSSPVTKSFNRGEC
notes: Substitutions introduced into M103205H795-SG1, expressed with M103202L889-SK1 as light chain; EU numbering
B2: M103205H795-MY528/M103202L889-SK1 (antibody, human IgG1, kappa)
heavy: B1 heavy with L236W, T328K
light: B1 light
notes: as for B1
B3: M103205H795-MY529/M103202L889-SK1 (antibody, human IgG1, kappa)
heavy: B1 heavy with L236W, Q297L, T328K
light: B1 light
notes: as for B1
B4: M103205H795-MY532/M103202L889-SK1 (antibody, human IgG1, kappa)
heavy: B1 heavy with L236W, S241V, T328K
light: B1 light
notes: as for B1
B5: M103205H795-MY531/M103202L889-SK1 (antibody, human IgG1, kappa)
heavy: B1 heavy with L236W
light: B1 light
notes: as for B1
B6: MS_M103205H795-SG1/M103202L889-SK1 (antibody, human IgG1, kappa)
heavy: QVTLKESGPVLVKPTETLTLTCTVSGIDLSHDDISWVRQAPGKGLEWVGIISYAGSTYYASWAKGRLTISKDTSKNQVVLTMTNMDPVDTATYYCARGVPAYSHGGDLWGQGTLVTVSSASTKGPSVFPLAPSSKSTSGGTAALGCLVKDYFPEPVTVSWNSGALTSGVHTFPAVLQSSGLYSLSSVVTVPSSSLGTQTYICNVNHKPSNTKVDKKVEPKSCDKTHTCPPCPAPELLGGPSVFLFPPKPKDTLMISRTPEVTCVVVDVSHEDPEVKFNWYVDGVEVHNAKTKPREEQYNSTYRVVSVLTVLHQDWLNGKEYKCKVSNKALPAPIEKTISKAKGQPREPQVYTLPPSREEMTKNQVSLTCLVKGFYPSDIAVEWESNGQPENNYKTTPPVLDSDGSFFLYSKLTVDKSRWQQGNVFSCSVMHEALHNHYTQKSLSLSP
light: B1 light
notes: Parent antibody with heavy chain constant region SG1; also called MS1032LO06-SG1; copies: 2 + 2
B7: M103205H795-MY265/M103202L889-SK1 (antibody, human IgG1, kappa)
heavy: B1 heavy with T328K
light: B1 light
notes: also called MS103205H795-MY265; copies: 2 + 2
B8: M103205H795-MY445/M103202L889-SK1 (antibody, human IgG1, kappa)
heavy: B1 heavy with P234G, T328K
light: B1 light
notes: copies: 2 + 2
B9: M103205H795-MY444/M103202L889-SK1 (antibody, human IgG1, kappa)
heavy: B1 heavy with P234F, T328K
light: B1 light
notes: copies: 2 + 2
B10: M103205H795-MY442/M103202L889-SK1 (antibody, human IgG1, kappa)
heavy: B1 heavy with P234D, T328K
light: B1 light
notes: copies: 2 + 2
B11: M103205H795-MY443/M103202L889-SK1 (antibody, human IgG1, kappa)
heavy: B1 heavy with P234E, T328K
light: B1 light
notes: copies: 2 + 2
B12: M103205H795-MY447/M103202L889-SK1 (antibody, human IgG1, kappa)
heavy: B1 heavy with P234I, T328K
light: B1 light
notes: copies: 2 + 2
B13: M103205H795-MY441/M103202L889-SK1 (antibody, human IgG1, kappa)
heavy: B1 heavy with P234A, T328K
light: B1 light
notes: copies: 2 + 2
B14: M103205H795-MY446/M103202L889-SK1 (antibody, human IgG1, kappa)
heavy: B1 heavy with P234H, T328K
light: B1 light
notes: copies: 2 + 2

Target: T1, human FcγRIIaH extracellular domain …
Experiment: SPR (BIACORE); KD of SG1 / KD of variant
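Also: relative to parent M103205H795-SG1 carrying the SG1 human heavy chain constant region.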

| KD fold (SG1 = 1) [fold] | Binder |
| --- | --- |
| 4.1 | B1 |
| 2 | B2 |
| 3 | B3 |
| 3.3 | B4 |
| 2.4 | B5 |

Target: T2, human FcγRIIaH extracellular domain, …
Experiment: SPR (BIACORE); KD of SG1 divided by KD of variant
Procedure: (§1) The kinetic analysis of interactions between these antibodies and FcγR was carried out using BIACORE® T200 or BIACORE® 4000 (GE Healthcare). HBS-EP+ (GE Healthcare) was used as the running buffer, and the measurement temperature was set to 25° C. A chip produced by immobilizing Protein A. Protein A/G or mouse anti-human IgG kappa light chain (BD Biosciences) onto a Series S Sensor Chip CM4 or CM5 (GE Healthcare) by the amine-coupling method was used. […] After the measurement, the antibody captured on the chip was washed off by allowing reaction with 10 mM glycine-HCl, pH1.5 and 25 mM NaOH so that the chip was regenerated and used repeatedly. The sensorgrams obtained as measurement results were analyzed by the 1:1 Langmuir binding model using the BIACORE® Evaluation Software to calculate the binding rate constant ka (L/mol/s) and dissociation rate constant kd (l/s), and the dissociation constant KD (mol/L) was calculated from these values. […] Regarding such interactions, KD values were calculated using the following 1:1 binding model described in BIACORE® T100 Software Handbook BR1006-48 Edition AE.

| KD fold (SG1 = 1) [fold] | Binder |
| --- | --- |
| 1 | B6 |
| 3.3 | B7 |
| 1.2 | B8 |
| 6.3 | B9 |
| 1.5 | B10 |
| 1.3 | B11 |
| 7.1 | B12 |
| 1.9 | B13 |
| 2.7 | B14 |

Target: T3, cynomolgus monkey FcγRIIa2 …
Experiment: SPR (BIACORE); KD of SG1 divided by KD of variant
Procedure: as §1

| KD fold (SG1 = 1) [fold] | Binder |
| --- | --- |
| 1 | B6 |
| 2.7 | B7 |
| 0.9 | B8 |
| 4.6 | B9 |
| 1.2 | B10 |
| 1 | B11 |
| 5.3 | B12 |
| 1.5 | B13 |
| 2.3 | B14 |

Target: T4, cynomolgus monkey FcγRIIIaS …
Experiment: SPR (BIACORE); KD of SG1 divided by KD of variant
Procedure: as §1

| KD fold (SG1 = 1) [fold] | Binder |
| --- | --- |
| 1 | B6 |
| 0.2 | B7 |
| 0.1 | B8 |
| 0.2 | B9 |
| 0.2 | B10 |
| 0.1 | B11 |
| 0.5 | B12 |
| 0.1 | B13 |
| 0.1 | B14 |

Target: T5, cynomolgus monkey FcγRIIb extracellular …
Experiment: SPR (BIACORE); KD of SG1 divided by KD of variant
Procedure: as §1

| KD fold (SG1 = 1) [fold] | Binder |
| --- | --- |
| 1 | B6 |
| 3.1 | B7 |
| 1.9 | B8 |
| 6 | B9 |
| 1.6 | B10 |
| 1.5 | B11 |
| 7.8 | B12 |
| 2 | B13 |
| 2.6 | B14 |

Target: T6, human FcγRIIaR extracellular domain, …
Experiment: SPR (BIACORE); KD of SG1 divided by KD of variant
Procedure: as §1

| KD fold (SG1 = 1) [fold] | Binder |
| --- | --- |
| 1 | B6 |
| 2.5 | B7 |
| 1 | B8 |
| 7.9 | B9 |
| 2.6 | B10 |
| 1.7 | B11 |
| 11.2 | B12 |
| 1.8 | B13 |
| 2.3 | B14 |

Target: T7, human FcγRIIb extracellular domain, …
Experiment: SPR (BIACORE); KD of SG1 divided by KD of variant
Procedure: as §1

| KD fold (SG1 = 1) [fold] | Binder |
| --- | --- |
| 1 | B6 |
| 2.1 | B7 |
| 1.1 | B8 |
| 6.2 | B9 |
| 2.6 | B10 |
| 1.6 | B11 |
| 10.5 | B12 |
| 1.6 | B13 |
| 1.9 | B14 |

Target: T8, cynomolgus monkey FcγRIIa3 …
Experiment: SPR (BIACORE); KD of SG1 divided by KD of variant
Procedure: as §1

| KD fold (SG1 = 1) [fold] | Binder |
| --- | --- |
| 1 | B6 |
| 3.5 | B7 |
| 1.2 | B8 |
| 6.9 | B9 |
| 2.5 | B10 |
| 1.9 | B11 |
| 11.3 | B12 |
| 2.1 | B13 |
| 3.6 | B14 |

Reference: patent US20200317768A1 (published 2020)
